Source: the supplement of paper PMC6379048

Assays:
Experiment in all cases: EC50 of free RNA motif oligo competing protein binding to immobilised probe
[1] = target: T1, SRSF11 (UniProt Q05519)
T1 sequence: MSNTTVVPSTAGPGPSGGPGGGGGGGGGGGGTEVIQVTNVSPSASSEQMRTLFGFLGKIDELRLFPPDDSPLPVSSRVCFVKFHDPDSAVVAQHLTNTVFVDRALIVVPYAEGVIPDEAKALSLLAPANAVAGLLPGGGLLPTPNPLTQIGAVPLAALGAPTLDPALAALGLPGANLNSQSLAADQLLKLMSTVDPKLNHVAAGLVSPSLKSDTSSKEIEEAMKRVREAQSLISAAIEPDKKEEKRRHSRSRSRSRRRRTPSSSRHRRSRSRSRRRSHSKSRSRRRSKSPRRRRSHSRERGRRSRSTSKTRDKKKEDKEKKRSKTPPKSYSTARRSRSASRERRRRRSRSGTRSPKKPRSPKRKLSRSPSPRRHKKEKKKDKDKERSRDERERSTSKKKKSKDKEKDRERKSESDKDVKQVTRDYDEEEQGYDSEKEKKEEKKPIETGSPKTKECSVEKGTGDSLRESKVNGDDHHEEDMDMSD
How it was run: (§1)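 HEK293-FT lysate (2.5 mg protein/well) was pre-incubated 1 h at 4°C with free RNA oligos (0 nM to 30 μM), then 30 min at 4°C with the same 5′-amino-C6 oligos coupled to NHS-Sepharose beads. Bound proteins were quantified by label-free LC-MS/MS in three biological replicates and two independent experiments, and normalised to the water control. EC50 came from a four-parameter log-logistic fit; Kd is EC50 times a protein-dependent depletion factor.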

[2] = target: T2, TIA1 (UniProt P31483)
T2 sequence: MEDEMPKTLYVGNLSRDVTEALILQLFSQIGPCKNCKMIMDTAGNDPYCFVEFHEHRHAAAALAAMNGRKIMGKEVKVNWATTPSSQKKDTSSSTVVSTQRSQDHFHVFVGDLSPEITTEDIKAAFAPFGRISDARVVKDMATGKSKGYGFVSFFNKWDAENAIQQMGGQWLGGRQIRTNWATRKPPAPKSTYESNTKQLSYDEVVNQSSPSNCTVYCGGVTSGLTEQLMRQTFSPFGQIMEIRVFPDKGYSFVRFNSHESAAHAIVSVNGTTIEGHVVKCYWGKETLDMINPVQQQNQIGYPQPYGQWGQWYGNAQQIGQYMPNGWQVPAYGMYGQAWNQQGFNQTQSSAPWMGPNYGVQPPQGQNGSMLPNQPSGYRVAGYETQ
How it was run: as §1

[3] = target: RPS28 (UniProt P62857)
How it was run: as §1

[4] = target: MRPL12 (UniProt P52815)
How it was run: as §1

[5] = target: T3, DHX30 (UniProt Q7L2E3)
T3 sequence: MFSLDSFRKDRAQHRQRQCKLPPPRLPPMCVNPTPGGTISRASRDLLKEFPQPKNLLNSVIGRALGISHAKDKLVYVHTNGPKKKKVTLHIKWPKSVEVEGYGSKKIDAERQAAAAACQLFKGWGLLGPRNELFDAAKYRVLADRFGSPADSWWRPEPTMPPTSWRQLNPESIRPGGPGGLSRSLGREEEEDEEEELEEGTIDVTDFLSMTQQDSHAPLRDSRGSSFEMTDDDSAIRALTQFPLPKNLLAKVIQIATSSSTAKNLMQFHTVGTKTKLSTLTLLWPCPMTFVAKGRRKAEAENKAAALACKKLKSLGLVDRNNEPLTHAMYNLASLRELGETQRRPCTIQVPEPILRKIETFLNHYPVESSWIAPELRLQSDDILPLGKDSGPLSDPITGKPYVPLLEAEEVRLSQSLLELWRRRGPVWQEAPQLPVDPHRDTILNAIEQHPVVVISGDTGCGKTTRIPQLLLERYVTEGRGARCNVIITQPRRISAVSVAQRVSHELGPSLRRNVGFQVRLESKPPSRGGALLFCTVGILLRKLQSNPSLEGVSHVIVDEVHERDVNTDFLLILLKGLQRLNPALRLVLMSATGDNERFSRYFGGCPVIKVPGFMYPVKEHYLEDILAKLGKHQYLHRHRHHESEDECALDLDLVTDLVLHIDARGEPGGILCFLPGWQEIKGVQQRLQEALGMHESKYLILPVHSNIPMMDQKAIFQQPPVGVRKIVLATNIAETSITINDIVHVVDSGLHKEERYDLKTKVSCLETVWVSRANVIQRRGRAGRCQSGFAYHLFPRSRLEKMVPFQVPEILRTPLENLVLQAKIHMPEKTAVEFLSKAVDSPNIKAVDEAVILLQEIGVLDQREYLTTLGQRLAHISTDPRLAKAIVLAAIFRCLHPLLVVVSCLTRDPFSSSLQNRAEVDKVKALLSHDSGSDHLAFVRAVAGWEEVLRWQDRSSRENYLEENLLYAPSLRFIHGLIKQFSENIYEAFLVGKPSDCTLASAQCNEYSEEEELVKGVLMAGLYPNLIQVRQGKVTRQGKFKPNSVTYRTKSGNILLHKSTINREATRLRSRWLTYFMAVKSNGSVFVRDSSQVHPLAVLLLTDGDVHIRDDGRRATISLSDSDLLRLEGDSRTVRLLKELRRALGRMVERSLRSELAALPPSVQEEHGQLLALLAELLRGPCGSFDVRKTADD
How it was run: as §1

Sequence | EC50 [1] [nM] | EC50 [2] [nM] | EC50 [3] [nM] | EC50 [4] [nM] | EC50 [5] [nM]
AAUAAA | 1110 | 2110 |  |  | 
CUGUCCU |  |  | 212 | 115 | 113
